These results are taken from patent publication US20220282217A1, “COMPOSITIONS AND METHODS FOR PREPARING T CELL COMPOSITIONS AND USES THEREOF” (priority 2019, published 2022).

For orientation: IC50 means the concentration that gives 50% inhibition. Higher therefore signals lower potency.

The target of the first assay is HLA class I molecule A02.01. As to the kind of experiment: pMHC-I dissociation half-life, 125I-b2m. To be noted: remark: other sources report otherwise.
The molecule FQNGKMALSA registered a Stability (T1/2 (h)) of 0 h.
FLLALWECSL showed a Stability (T1/2 (h)) of 10.8 h.
FLQEQYHEA yielded a Stability (T1/2 (h)) of 9.5 h.

A further assay concerns the target HLA class I molecule B08.01. Description: pMHC-I dissociation half-life, 125I-b2m. To be noted: remark: other sources report otherwise.
Consider FQNGKMALSA, for which the Stability (T1/2 (h)) worked out at 0 h.
For the molecule FLLALWECSL, the Stability (T1/2 (h)) is 0 h.
The molecule FLQEQYHEA came in with a Stability (T1/2 (h)) of 0 h.

Another assay deals with HLA-A02.01 (human). As to the kind of experiment: pMHC-I dissociation half-life, 125I-b2m. The following applies: remark: other sources report otherwise.
As to NQRPILTII, the Stability (T1/2 (h)) was found to be 0 h.
LVVVGAVGV showed a Measured stability of 0.6 h.
Molecule MALNSEALSV gave a Stability (T1/2 (h)) of 0.7 h.
As for LVVVGACGV, the Measured stability was 0.6 h.
WMTETLFDI gave a Stability (T1/2 (h)) of 4 h.
Same read-out and setting: for GMNWRPILTI the value was 0.5 h; for CMGSMNRRPI, 0 h.
SMNRRPILTI had a Stability (T1/2 (h)) of 0.3 h.
TQLARFFPI: the Stability (T1/2 (h)) came out at 0 h.
Regarding LVVVGADGV, the Measured stability stood at 0 h.
As for CMGGMNWRPI, the Stability (T1/2 (h)) is 0.4 h.

For another assay, the target named is HLA-A24.02 (human). As to the kind of experiment: pMHC-I dissociation half-life, 125I-b2m. To be noted: remark: other sources report otherwise.
The molecule WMTETLFDI returned a Stability (T1/2 (h)) of 0 h.
Regarding SMNRRPILTI, the Stability (T1/2 (h)) was 0 h.
TQLARFFPI showed a Stability (T1/2 (h)) of 0 h.
Regarding CMGGMNWRPI, the Stability (T1/2 (h)) worked out at 0 h.

A further assay has as its target HLA-A02.01 (human). As to the kind of experiment: pMHC-I complex dissociation at 37 C, 125I-b2m, half-life. The following applies: remark: other sources report otherwise.
The molecule IMQLMPFGC […, listing 1 of 2 here] had a Stability (T1/2 (h)) of 0.4 h.
In turn, MQLMPFGCLL came in with a Stability (T1/2 (h)) of 0.4 h.
Turning to LIMQLMPFG […, listing 1 of 2 here], the Stability (T1/2 (h)) worked out at 0 h.
Same read-out and setting: for WLHKRGKYI the value was 1.2 h.
On the same count and under the same terms, for LQSLPRFILM the value was 0 h; for YTLDVLERC, 6.6 h; for IMQLMPFGCL, 0.5 h.
Regarding SVCFFFFSV, the Stability (T1/2 (h)) came out at 9.4 h.
MQLMPFGCL: the Stability (T1/2 (h)) was 0.4 h.
The molecule STVQLIMQL […, listing 1 of 2 here] had a Stability (T1/2 (h)) of 0 h.
In turn, SLLNYLREM registered a Stability (T1/2 (h)) of 3 h.
On the same count and under the same terms, for QLIMQLMPFG […, listing 1 of 2 here] the value was 0 h; for VQLIMQLMPF, 0 h.
Take PLYGLLLEML: the Stability (T1/2 (h)) was found to be 0 h.
QLIMQLMPF had a Stability (T1/2 (h)) of 0.3 h.
LTINKEEAL gave a Stability (T1/2 (h)) of 0 h.
RVAKIADFGM registered a Stability (T1/2 (h)) of 0.5 h.
YMANGSLLN yielded a Stability (T1/2 (h)) of 0 h.
SLPRFILMEL: the Stability (T1/2 (h)) amounted to 0.5 h.
As to MANGSLLNYL, the Stability (T1/2 (h)) is 0 h.

For the next assay, the target named is HLA-A24.02 (human). The assay is described as above. The following applies: remark: other sources report otherwise.
Molecule MQLMPFGCLL displayed a Stability (T1/2 (h)) of 0 h.
Same read-out and setting: in the case of IMQLMPFGCL it was 0 h; in that of FLPSTLKSL, 1 h.
The molecule VQLIMQLMPF showed a Stability (T1/2 (h)) of 0 h.
For the molecule PLYGLLLEML, the Stability (T1/2 (h)) turned out to be 6.3 h.
For QLIMQLMPF, the Stability (T1/2 (h)) is 0.4 h.
Molecule SLPRFILMEL returned a Stability (T1/2 (h)) of 0.2 h.

The target of the next assay is HLA-B07.02 (human). Described as above. The following applies: remark: other sources report otherwise.
The molecule WLHKRGKYI showed a Stability (T1/2 (h)) of 0 h.
The molecule MQLMPFGCL registered a Stability (T1/2 (h)) of 0 h.
SLLNYLREM: the Stability (T1/2 (h)) is 0 h.
The molecule RVAKIADFGM displayed a Stability (T1/2 (h)) of 0.2 h.
Molecule SLPRFILMEL yielded a Stability (T1/2 (h)) of 0.4 h.
In the case of MANGSLLNYL, the Stability (T1/2 (h)) is 0 h.

The target in another assay is HLA-A02.01 (human). Description: competition with radiolabeled reference peptide, purified MHC I. To be noted: remark: other sources report otherwise.
NQRPILTII showed a half-maximal inhibitory concentration (IC50) of 9610 nM. In other words, the single-digit micromolar range.
MALNSEALSV: the IC50 came out at 129 nM.
On to LVVVGACGV, for which the Measured Affinity stood at 667 nM.
In turn, WMTETLFDI yielded an IC50 of 14 nM.
GMNWRPILTI had an IC50 of 282 nM.
Molecule CMGSMNRRPI gave an IC50 of 1990 nM.
Take SMNRRPILTI: the IC50 is 1200 nM. This IC50 lies about 1.7-fold lower than the previous one.
On the same count and under the same terms, in the case of TQLARFFPI it was 19 nM.
In the case of LVVVGADGV, the Measured Affinity is 977 nM.
Molecule CMGGMNWRPI yielded an IC50 of 346 nM.

In another assay the target is HLA-A24.02 (human). Described as above. To be noted: remark: other sources report otherwise.
With WMTETLFDI, the IC50 stood at 713 nM.
SMNRRPILTI: the IC50 was determined as 16300 nM.
Take TQLARFFPI: the IC50 was found to be 52 nM. Against the preceding molecule, the IC50 is about 310-fold lower.
On the same count and under the same terms, in the case of CMGGMNWRPI it was 4450 nM.

The next assay has as its target HLA class I molecule A02.01. As to the kind of experiment: competition with radiolabeled reference peptide on purified MHC I. To be noted: remark: other sources report otherwise.
FQNGKMALSA had an IC50 of 6160 nM.
Molecule LIVSRTLLL showed an IC50 of 174 nM.
On the same count and under the same terms, in the case of ALQPLQPHA it was 604 nM.

A further assay concerns the target HLA-A02.01 (human). As to the kind of experiment: competition vs radiolabeled reference peptide on purified MHC I, gel filtration. To be noted: remark: other sources report otherwise. On the technique in general: Size exclusion chromatography separates by hydrodynamic size, large species first.
On to IMQLMPFGC […, listing 1 of 2 here], for which the IC50 was 1610 nM.
With MQLMPFGCLL, the IC50 turned out to be 20 nM.
LIMQLMPFG […, listing 1 of 2 here] registered an IC50 of 3510 nM.
The molecule WLHKRGKYI gave an IC50 of 1250 nM.
In turn, LQSLPRFILM displayed an IC50 of 413 nM.
Still for that read-out and setting: in the case of IMQLMPFGCL it was 837 nM; in that of SVCFFFFSV, 175 nM.
The molecule STVQLIMQL […, listing 1 of 2 here] had an IC50 of 8540 nM.
Still for that read-out and setting: in the case of SLLNYLREM it was 87 nM; in that of QLIMQLMPFG […, listing 1 of 2 here], 5930 nM; in that of VQLIMQLMPF, 5490 nM.
Consider PLYGLLLEML, for which the IC50 was determined as 797 nM.
Consider QLIMQLMPF, for which the IC50 was 227 nM.
The molecule LTINKEEAL registered an IC50 of 4410 nM.
Still for that read-out and setting: in the case of RVAKIADFGM it was 125 nM; in that of YMANGSLLN, 4440 nM.
On to SLPRFILMEL, for which the IC50 came to 26 nM. Against the preceding molecule, the IC50 is about 170-fold lower.
Consider MANGSLLNYL, for which the IC50 was 1080 nM.

For the next assay, the target named is HLA-A24.02 (human). The assay is described as above. To be noted: remark: other sources report otherwise.
The molecule MQLMPFGCLL gave an IC50 of 23600 nM.
IMQLMPFGCL displayed an IC50 of 18100 nM.
Consider FLPSTLKSL, for which the IC50 is 995 nM. Compared with the last molecule, the IC50 is about 18-fold lower.
On the same count and under the same terms, for VQLIMQLMPF the value was 4560 nM; for PLYGLLLEML, 444 nM.
SLPRFILMEL yielded a half-inhibitory concentration (IC50) of 2770 nM.

The target of the next assay is HLA-B07.02 (human). The description is as above. The following applies: remark: other sources report otherwise.
In turn, WLHKRGKYI yielded an IC50 of 2650 nM.
As to MQLMPFGCL, the IC50 came to 2270 nM.
SLLNYLREM: the IC50 stood at 1110 nM.
On to RVAKIADFGM, for which the IC50 was 9720 nM.
SLPRFILMEL had a half-inhibitory concentration (IC50) of 583 nM.
Consider MANGSLLNYL, for which the IC50 amounted to 17700 nM.

In the next assay the target is T1, HLA-A02.01 class I MHC molecule (prepared complex) (human). As to the kind of experiment: dissociation of peptide-MHC-I complex at 37 C, 125I-labelled b2m, scintillation. To be noted: remark: other sources report otherwise.
IMQLMPFGC [EGFR_T790M peptide …, listing 2 of 2 here] showed a Stability (half-life (hr.)) of 22.2 min.
Take LIMQLMPFG [EGFR_T790M peptide …, listing 2 of 2 here]: the Stability (half-life (hr.)) is 0 min.
For STVQLIMQL [EGFR_T790M peptide …, listing 2 of 2 here], the Stability (half-life (hr.)) turned out to be 0 min.
Molecule QLIMQLMPFG [EGFR_T790M peptide …, listing 2 of 2 here] registered a Stability (half-life (hr.)) of 0 min.

A further assay deals with T1, HLA-A02.01 class I MHC molecule …. Description: displacement of radiolabeled reference peptide from class I MHC, gel filtration; 'Affinity (nM)'. To be noted: remark: other sources report otherwise.
The molecule IMQLMPFGC [EGFR_T790M peptide …, listing 2 of 2 here] registered an IC50 of 1210 nM.
In turn, LIMQLMPFG [EGFR_T790M peptide …, listing 2 of 2 here] showed an IC50 of 3340 nM.
STVQLIMQL [EGFR_T790M peptide …, listing 2 of 2 here] displayed an IC50 of 7260 nM.
Same read-out and setting: for QLIMQLMPFG [EGFR_T790M peptide …, listing 2 of 2 here] the value was 5210 nM.
